Test results from patent US20100272719A1.

Molecular target: VEGF (isoform not given)
Assay: cell-based or functional assay

FP3′ (FLTd2-KDRd3-KDRd4-Fc chimeric fusion protein) (Fc fusion)
HUVEC chemotactic migration (Transwell), percent blocked at 10 µg FP3′: 78.3% | HUVEC chemotactic migration (Transwell), percent blocked at 20 µg FP3′: 94.7% | HUVEC tube formation on Matrigel, percent inhibition at 50 µg/ml: 72.3% | VEGF-induced cell proliferation, percent blocked at 10.7 nM FP3′: 82.6% | rat aortic ring microvessel sprouting, percent inhibition at 100 µg/ml: 70.4% | rat aortic ring microvessel sprouting, percent inhibition at 200 µg/ml: 90% | rat aortic ring vessel outgrowth, more inhibition than Avastin: 15 to 33%

Avastin (bevacizumab) (antibody)
HUVEC tube formation on Matrigel, percent inhibition at 50 µg/ml: 41.3%
